Starred links: 1 amine or outer side, 2 acyl side, 3 side chain; linkers in the order of their positions; H or OH if unused. Positions of bridges follow the written chain, without caps; N, C: chain ends. Non-standard residues stand in square brackets, D forms with d. Primed or numbered codes have the meaning given here. SeN″ = (S)-5-(((allyloxy)carbonyl)(methyl)amino)-2-amino-2-methylpentanoic acid (stapling residue), C=CCOC(=O)N(C)CCC[C@](C)(N[*:1])C(=O)[*:2]; B5(4) = 2,2-bis(4-pentenyl)glycine = 2-amino-2-(pent-4-en-1-yl)hept-6-enoic acid (stitching residue), C=CCCCC(CCCC=C)(N[*:1])C(=O)[*:2]; B5(5) = 2,2-bis(4-pentenyl)glycine, 2-amino-2-(pent-4-en-1-yl)hept-6-enoic acid (stitching residue), C=CCCCC(CCCC=C)(N[*:1])C(=O)[*:2]; B5(21) = 2-amino-2-(pent-4-en-1-yl)hept-6-enoic acid, bis(4-pentenyl)glycine (stitching residue), C=CCCCC(CCCC=C)(N[*:1])C(=O)[*:2]; SeN = (S)-5-(((allyloxy)carbonyl)(methyl)amino)-2-amino-2-methylpentanoic acid, C=CCOC(=O)N(C)CCC[C@](C)(N[*:1])C(=O)[*:2]; RdN = (R)-4-(((allyloxy)carbonyl)(methyl)amino)-2-amino-2-methylbutanoic acid, C=CCOC(=O)N(C)CC[C@@](C)(N[*:1])C(=O)[*:2]; SdN = (S)-4-(((allyloxy)carbonyl)(methyl)amino)-2-amino-2-methylbutanoic acid, C=CCOC(=O)N(C)CC[C@](C)(N[*:1])C(=O)[*:2]; PyrS = (S)-1-((allyloxy)carbonyl)-3-aminopyrrolidine-3-carboxylic acid, C=CCOC(=O)N1CC[C@@](N[*:1])(C(=O)[*:2])C1; Phe(3,5-F2) = N[C@@H](Cc1cc(F)cc(F)c1)C(=O)O; S7 = C[C@@](CCCCCC=[*:3])(N[*:1])C(=O)[*:2]; Phe(4-F) = N[C@@H](Cc1ccc(F)cc1)C(=O)O; αAllylPro = C=CC[C@@]1(C(=O)O)CCCN1; R8 = C=CCCCCCC[C@@](C)(N)C(=O)O; S8 = C=CCCCCCC[C@](C)(N)C(=O)O
T1: full-length beta-Catenin (Uniprot ID P35222) (Homo sapiens (Human), UniProt P35222 2-781)
T1 construct: also called B-Catenin; bCat
T1 sequence: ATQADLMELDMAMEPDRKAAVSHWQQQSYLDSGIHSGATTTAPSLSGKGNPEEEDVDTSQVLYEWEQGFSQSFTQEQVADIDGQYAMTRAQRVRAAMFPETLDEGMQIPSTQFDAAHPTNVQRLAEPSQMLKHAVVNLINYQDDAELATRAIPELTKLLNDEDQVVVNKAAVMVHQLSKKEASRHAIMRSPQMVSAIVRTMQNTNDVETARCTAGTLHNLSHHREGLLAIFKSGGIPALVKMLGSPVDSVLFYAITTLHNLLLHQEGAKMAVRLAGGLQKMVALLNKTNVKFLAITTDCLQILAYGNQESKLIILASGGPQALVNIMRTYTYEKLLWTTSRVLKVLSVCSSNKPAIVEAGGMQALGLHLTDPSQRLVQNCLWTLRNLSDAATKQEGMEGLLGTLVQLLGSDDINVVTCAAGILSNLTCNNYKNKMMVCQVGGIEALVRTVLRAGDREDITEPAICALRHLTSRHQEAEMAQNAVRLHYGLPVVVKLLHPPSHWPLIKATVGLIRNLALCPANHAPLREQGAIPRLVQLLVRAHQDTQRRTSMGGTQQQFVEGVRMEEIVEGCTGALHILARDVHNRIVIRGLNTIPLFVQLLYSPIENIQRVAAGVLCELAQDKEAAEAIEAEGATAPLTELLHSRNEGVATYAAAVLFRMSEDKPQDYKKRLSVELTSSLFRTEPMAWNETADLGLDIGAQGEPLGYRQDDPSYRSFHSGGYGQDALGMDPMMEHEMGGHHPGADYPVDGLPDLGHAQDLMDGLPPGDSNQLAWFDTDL

T2: full-length beta-Catenin (Uniprot ID P35222) (Homo sapiens (Human), UniProt P35222 2-781)
T2 construct: The AlphaScreen assay used a Histidine (Nickel Chelate) detection kit, so a His tag is likely, but no tag is described; also called B-Catenin; bCat
T2 sequence: T1 sequence

T3: full-length beta-Catenin (Uniprot ID P35222) (Homo sapiens (Human), UniProt P35222 2-781)
T3 construct: Used full-length in both the FP and the AlphaScreen assay; also called B-Catenin; bCat
T3 sequence: T1 sequence

B1: I-123 (peptide)
peptide: Ac-[αAllylPro]DA[B5(4)]DEAAFV[S8]FWQ-NH2
modifications: staple 1-4, 4-11
notes: Stitched (two-staple) peptide composition
B2: I-125 (peptide)
peptide: XDAXDNAAFVXFWQ
modifications: not fully specified; as printed: Ac-PL3-Asp-Ala-B5-Asp-Asn-Ala-Ala-Phe-Val-S8-Phe-Trp-Gln-NH2; staples PL3(1)-B5(4) and B5(4)-S8(11)
notes: as for B1
B3: I-127 (peptide)
peptide: Ac-[αAllylPro]DA[B5(5)]DQAAFV[S8]FWQ-NH2
modifications: staple 1-4, 4-11
notes: as for B1
B4: I-217 (peptide)
peptide: Ac-[αAllylPro]DA[B5(4)]DEAAXV[S8]FWQ-NH2
modifications: staple 1-4, 4-11; not fully specified (residue 9); printed as Ac-PL3-Asp-Ala-B5-Asp-Glu-Ala-Ala-MeTyr-Val-S8-Phe-Trp-Gln-NH2
notes: Stapled peptide composition; also called Ac-PL3-Asp-Ala-B5-Asp-Glu-Ala-Ala-MeTyr-Val-S8-Phe-Trp-Gln-NH2
B5: I-218 (peptide)
peptide: Ac-[αAllylPro]DA[B5(4)]DEAAXV[S8]FWQ-NH2
modifications: staple 1-4, 4-11; not fully specified (residue 9); printed as Ac-PL3-Asp-Ala-B5-Asp-Glu-Ala-Ala-MeTyr-Val-S8-Phe-Trp-Gln-NH2
notes: as for B4
B6: I-219 (peptide)
peptide: Ac-[αAllylPro]DA[B5(4)]DEAA[Phe(3,5-F2)]V[S8]FWQ-NH2
modifications: staple 1-4, 4-11
notes: Stapled peptide composition; also called Ac-PL3-Asp-Ala-B5-Asp-Glu-Ala-Ala-35FF-Val-S8-Phe-Trp-Gln-NH2
B7: I-220 (peptide)
peptide: Ac-[αAllylPro]DA[B5(4)]DEAA[Phe(3,5-F2)]V[S8]FWQ-NH2
modifications: staple 1-4, 4-11
notes: as for B6
B8: I-54 (peptide)
peptide: Ac-[αAllylPro]DA[B5(21)]DDAAFV[SeN]FWQ-NH2
modifications: staple 1-4, 4-11
notes: Stapled (stitched) peptide; also called Ac-PL3-Asp-Ala-B5-Asp-Asp-Ala-Ala-Phe-Val-SeN-Phe-Trp-Gln-NH2
B9: I-66 (peptide)
peptide: Ac-ADI[RdN]DEAAFQ[S7]FWH-NH2
modifications: staple 4-11; not fully specified
notes: Stapled peptide; also called Ac-Ala-Asp-Ile-RdN-Asp-Glu-Ala-Ala-Phe-Gln-S7-Phe-Trp-His-NH2
B10: I-67 (peptide)
peptide: Ac-ADI[RdN]DEAAFQ[S7]FWH-NH2
modifications: staple 4-11
notes: as for B9
B11: I-55 (peptide)
peptide: Ac-[αAllylPro]DA[B5(4)]DDAAFV[SdN]FWQ-NH2
modifications: staple 1-4, 4-11
notes: Stapled (stitched) peptide; also called Ac-PL3-Asp-Ala-B5-Asp-Asp-Ala-Ala-Phe-Val-SdN-Phe-Trp-Gln-NH2
B12: I-78 (peptide)
peptide: Ac-FDA[R8]DDAA[Phe(4-F)]V[PyrS]FWQ-NH2
modifications: staple 4-11
notes: Stapled peptide; also called Ac-Phe-Asp-Ala-R8-Asp-Asp-Ala-Ala-4FF-Val-PyrS-Phe-Trp-Gln-NH2
B13: I-53 (peptide)
peptide: Ac-[αAllylPro]DA[B5(21)]DDAAFV[SeN″]FWQ-NH2
modifications: staple 1-4, 4-11; also: earlier-eluting HPLC isomer, E/Z not given here
notes: as for B8

The binders below were run against T1, full-length beta-Catenin (Uniprot ID …) (assay: fluorescence polarization competition; 5FAM-TCF4(10-53) probe with full-length beta-catenin).
Protocol: (§1) The plate was incubated protected from light for 60 minutes at 20° C. prior to read. Reads were performed on a CLARIOstar plate reader (BMG Labtech) in duplicate, and data were fitted to a 1:1 binding model with hill slope using an in-house script. All provided concentrations are final concentrations.

Row | EC50 [nM] | Binder
1 | 2110 | B1
2 | 3060 | B2
3 | 4840 | B3

These binders were tested against T2, full-length beta-Catenin (Uniprot ID …) (assay: fluorescence polarization competition: full-length beta-catenin + 5FAM-TCF4(10-53) probe, peptide titrated).
Protocol: as §1

Row | EC50 [nM] | Binder
4 | 1960 | B4
5 | 1960 | B5
6 | 2860 | B6
7 | 2860 | B7

Each binder was assayed against T2, full-length beta-Catenin (Uniprot ID …) (assay: AlphaScreen competition: full-length beta-catenin + biotin-TCF4(10-53) probe, peptide titrated).
In short: (§2)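 Titrated peptide was preincubated 15 minutes at 20° C, then donor and acceptor beads were added for 60 minutes at 20° C protected from light. Reads were done in duplicate, and data were fitted to a 1:1 binding model with Hill slope; concentrations are final.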

Row | EC50 [nM] | Binder
8 | 90 | B4
9 | 90 | B5
10 | 131 | B6
11 | 131 | B7

The binders below were run against T1, full-length beta-Catenin (Uniprot ID …) (assay: Alphascreen competition; biotin-TCF4(10-53) probe with full-length beta-catenin).
Protocol: as §1, with “Equal volume of the titrated peptide was added to the” for “The”, “and” for “was”, “incubated for 15 minutes at 20° C. Then 4 uL of donor and 4 uL acceptor beads at 10 ug/mL were added to the plate, for a 16 uL reaction pool and” for “incubated”

Row | EC50 [nM] | Binder
12 | 444 | B1
13 | 569 | B2
14 | 552 | B3

Each binder was assayed against T3, full-length beta-Catenin (Uniprot ID …) (assay: fluorescence polarization competition; full-length beta-catenin, 5FAM-TCF4(10-53) probe).
Protocol: as §1

Row | EC50 [nM] | Binder
15 | 3190 | B8
16 | 1090 | B9
17 | 1230 | B10
18 | 5000 | B11
19 | 5000 | B12
20 | 5000 | B13

Each binder was assayed against T3, full-length beta-Catenin (Uniprot ID …) (assay: AlphaScreen competition; full-length beta-catenin, biotin-TCF4(10-53) probe).
In short: as §2

Row | EC50 [nM] | Binder
21 | 482 | B8
22 | 174 | B9
23 | 154 | B10
24 | 2380 | B11
25 | 7480 | B12
26 | 1140 | B13
